Measured values as given in PMC8093215 (2021).

Columns and labels:
[1] = biological target: hDNMT1 BAH1 domain D768A (human, UniProt P26358 728-900, D768A); assay: ITC
[2] = biological target: hDNMT1 BAH1 domain Y775A (human, UniProt P26358 728-900, Y775A); assay: ITC
hDNMT1 BAH1 domain Y775A, sequence (P26358 728-900 Y775A): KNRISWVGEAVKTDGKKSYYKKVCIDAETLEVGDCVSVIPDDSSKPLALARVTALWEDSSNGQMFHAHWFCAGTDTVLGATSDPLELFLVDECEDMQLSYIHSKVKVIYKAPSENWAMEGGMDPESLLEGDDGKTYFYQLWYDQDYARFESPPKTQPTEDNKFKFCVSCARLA

hDNMT1 BAH1 domain D768A, sequence (P26358 728-900 D768A): as the sequence (P26358 728-900 Y775A) above, with D41A, A48Y counted along it

Kd [1]: 10 µM
Kd [2]: 361 µM
B1: H4(14–25)K20me3 peptide (peptide)
peptide: GAKRHRKVLRDNY
modifications: trimethyl-lysine at K20
